From US20160272690A1
Bridges are numbered along the chain shown (N, C = ends). Where no end group is shown, it is not given here. [ ]: non-standard residue; d: D form. hCys = N[C@@H](CCS)C(=O)O; Orn = NCCC[C@H](N)C(=O)O; Dab = NCC[C@H](N)C(=O)O

Molecular target: TEAD
Experiment: IC50 for TEAD binding (TR-FRET test)

TEAD, sequence (P28347 209-426): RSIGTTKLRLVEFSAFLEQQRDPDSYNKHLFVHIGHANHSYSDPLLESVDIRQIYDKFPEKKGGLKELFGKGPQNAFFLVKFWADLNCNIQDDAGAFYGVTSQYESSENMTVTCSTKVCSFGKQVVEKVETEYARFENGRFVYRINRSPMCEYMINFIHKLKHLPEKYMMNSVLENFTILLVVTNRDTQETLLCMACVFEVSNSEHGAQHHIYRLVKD

Binder	IC50
VPF[hCys]LR[Dab]LPDSFCKPPE (disulfide 4-13) [polypeptide represented by SEQ ID NO.: 6]	28 nM
VPF[hCys]LR[Orn]LPDSFCKPPE (disulfide 4-13) [polypeptide represented by SEQ ID NO.: 5]	43 nM
